In PMC10328077 one finds Kd data, which are given here for eight substances.

Test [1] concerns the target NT647-labeled apoE2(1–165) fragment (human). As to the kind of experiment: MST; labelled apoE2(1-165) at 2.8 nM held constant, FH402H, FH402Y, FH1-4 or FH19-20 titrated; n = 3; Kd fit model of normalized (ΔFnorm) values; 150 mM KCl, 25 mM HEPES pH 7.5, 0.01% Tween 20, 0.01% NaN3.
For another test, the target named is NT647-FH5-7 402Y (human) (UniProt P08603). The experiment in a line: MST; NT647-FH5-7 402Y at 35 nM held constant, apoE2, apoE3 or apoE4 titrated; n = 3; Kd fit model of normalized (ΔFnorm) values; 150 mM KCl, 25 mM HEPES pH 7.5, 0.01% Tween 20, 0.01% NaN3.
Sequence of NT647-FH5-7 402Y (human) (P08603 19-1231): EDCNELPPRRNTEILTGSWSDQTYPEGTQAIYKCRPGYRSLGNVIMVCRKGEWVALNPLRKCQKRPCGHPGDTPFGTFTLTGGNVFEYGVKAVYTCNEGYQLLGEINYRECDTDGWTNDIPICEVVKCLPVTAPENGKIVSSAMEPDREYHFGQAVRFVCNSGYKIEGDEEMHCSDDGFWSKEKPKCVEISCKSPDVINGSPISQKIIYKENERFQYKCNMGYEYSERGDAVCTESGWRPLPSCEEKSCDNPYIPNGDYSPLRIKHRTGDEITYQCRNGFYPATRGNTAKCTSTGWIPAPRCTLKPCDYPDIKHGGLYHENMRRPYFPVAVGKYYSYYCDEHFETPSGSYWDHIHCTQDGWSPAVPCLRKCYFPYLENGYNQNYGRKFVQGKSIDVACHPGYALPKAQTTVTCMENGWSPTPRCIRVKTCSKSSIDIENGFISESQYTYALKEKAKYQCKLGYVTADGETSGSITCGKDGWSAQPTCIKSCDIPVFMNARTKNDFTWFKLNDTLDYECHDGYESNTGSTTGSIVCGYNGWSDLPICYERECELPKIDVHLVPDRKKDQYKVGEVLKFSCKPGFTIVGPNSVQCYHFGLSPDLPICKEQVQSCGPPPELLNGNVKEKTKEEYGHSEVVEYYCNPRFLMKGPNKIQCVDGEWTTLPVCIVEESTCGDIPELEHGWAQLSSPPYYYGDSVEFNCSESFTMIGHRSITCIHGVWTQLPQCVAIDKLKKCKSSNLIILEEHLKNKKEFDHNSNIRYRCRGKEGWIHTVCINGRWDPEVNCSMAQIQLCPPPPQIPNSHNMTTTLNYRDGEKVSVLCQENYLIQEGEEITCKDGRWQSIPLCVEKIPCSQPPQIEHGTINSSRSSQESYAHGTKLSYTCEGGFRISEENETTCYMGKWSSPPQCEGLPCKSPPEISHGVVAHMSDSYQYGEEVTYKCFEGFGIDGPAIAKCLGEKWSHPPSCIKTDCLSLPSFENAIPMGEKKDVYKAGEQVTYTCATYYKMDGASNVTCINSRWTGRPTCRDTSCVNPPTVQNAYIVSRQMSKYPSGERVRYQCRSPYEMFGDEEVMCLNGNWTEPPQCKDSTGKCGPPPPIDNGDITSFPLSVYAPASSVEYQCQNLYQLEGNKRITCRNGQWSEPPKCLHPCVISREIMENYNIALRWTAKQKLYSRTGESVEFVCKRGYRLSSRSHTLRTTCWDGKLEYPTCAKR
For test [2], the target named is complement factor H (FH), NT647-labeled full-length FH (human) (UniProt P08603). The experiment in a line: MST; FH at 2 nM held constant (NT647-labelled by the legend of Fig 1I), native apoE2 or native apoE4 titrated; n = 3; Kd fit model of normalized (ΔFnorm) values; 150 mM KCl, 25 mM HEPES pH 7.5, 0.01% Tween 20, 0.01% NaN3.
Sequence of complement factor H (FH), NT647-labeled full-length FH (human) (P08603 19-1231): as above

What is called Kd is the constant that tells how readily two partners part at equilibrium. Lower therefore signals higher affinity.

Sequence of FH402H (P08603 19-1231 Y402H): as the sequence (P08603 19-1231) above, with Y384H counted along it
Sequence of FH402Y (P08603 19-1231): as the sequence (P08603 19-1231) above

In the case of FH1-4 (domain or fragment), the dissociation constant Kd in test [1] turned out to be 0.999 µM.
Same read-out and setting: the same measure for “FH402H (from UniProt P08603 19-1231) (natural protein)”: 0.496 µM; for “FH402Y (from UniProt P08603 19-1231) (natural protein)”: 0.253 µM.
In the test with NT647-FH5-7 402Y (human), “apoE2 (from UniProt P02649 19-317) (natural protein)” came in with a Kd of 1 µM.
Still for that read-out and setting: the same measure for “apoE3 (from UniProt P02649 19-317) (natural protein)”: 1.38 µM; for “apoE4 (from UniProt P02649 19-317) (natural protein)”: 1.95 µM.
In test [2], “native apoE2 (from UniProt P02649 19-317) (natural protein)” yielded a dissociation constant (Kd) of 0.002 µM.
“native apoE4 (from UniProt P02649 19-317) (natural protein)” had a dissociation constant (Kd) in test [2] of 0.3 µM. Against the preceding substance, the Kd is about 150-fold higher.
